Laboratory results as given in patent US20120141505A1 (published 2012).

What was measured:
[1] = molecular target: T1, human CD19 expressed on transfected DT40 chicken B-lymphoma cells (DT40hCD19+) (human, UniProt P15391 20-556); test: flow cytometry, biotin-labeled CD19-L plus Avidin-FITC
T1 construct: Human CD19 cDNA under a chicken actin promoter (pApuro) in DT40 cells; also called human CD19 co-receptor
T1 sequence: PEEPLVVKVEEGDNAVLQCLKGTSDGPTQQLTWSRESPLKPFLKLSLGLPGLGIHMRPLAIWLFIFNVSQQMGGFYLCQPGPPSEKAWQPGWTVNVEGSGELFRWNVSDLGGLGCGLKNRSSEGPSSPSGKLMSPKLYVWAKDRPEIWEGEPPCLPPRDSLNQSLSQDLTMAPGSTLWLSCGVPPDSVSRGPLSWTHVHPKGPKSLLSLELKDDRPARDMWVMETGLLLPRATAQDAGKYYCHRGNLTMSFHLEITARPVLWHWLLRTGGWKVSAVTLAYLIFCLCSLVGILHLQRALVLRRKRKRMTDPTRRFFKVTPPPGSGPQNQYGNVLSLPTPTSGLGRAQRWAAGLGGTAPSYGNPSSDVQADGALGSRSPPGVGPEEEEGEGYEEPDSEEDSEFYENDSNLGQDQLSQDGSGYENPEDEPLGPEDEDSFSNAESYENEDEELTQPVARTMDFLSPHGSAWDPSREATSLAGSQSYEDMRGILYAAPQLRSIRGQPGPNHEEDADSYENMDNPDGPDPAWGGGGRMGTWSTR
Excerpt: (§1) Binding of biotin-labeled soluble CD19-L protein to the surface of CD19 co-receptor positive cells was examined using immunofluorescence staining combined with flow cytometry and deconvolution microscopy.

[2] = molecular target: T2, CD19 co-receptor on CD19+ human B-lineage ALL cells (primary leukemic cells; NALM-6 cell line) (human, UniProt P15391 20-556); test: deconvolution microscopy, biotin-labeled CD19-L plus Avidin-FITC
T2 construct: Endogenous CD19 on leukemia cells
T2 sequence: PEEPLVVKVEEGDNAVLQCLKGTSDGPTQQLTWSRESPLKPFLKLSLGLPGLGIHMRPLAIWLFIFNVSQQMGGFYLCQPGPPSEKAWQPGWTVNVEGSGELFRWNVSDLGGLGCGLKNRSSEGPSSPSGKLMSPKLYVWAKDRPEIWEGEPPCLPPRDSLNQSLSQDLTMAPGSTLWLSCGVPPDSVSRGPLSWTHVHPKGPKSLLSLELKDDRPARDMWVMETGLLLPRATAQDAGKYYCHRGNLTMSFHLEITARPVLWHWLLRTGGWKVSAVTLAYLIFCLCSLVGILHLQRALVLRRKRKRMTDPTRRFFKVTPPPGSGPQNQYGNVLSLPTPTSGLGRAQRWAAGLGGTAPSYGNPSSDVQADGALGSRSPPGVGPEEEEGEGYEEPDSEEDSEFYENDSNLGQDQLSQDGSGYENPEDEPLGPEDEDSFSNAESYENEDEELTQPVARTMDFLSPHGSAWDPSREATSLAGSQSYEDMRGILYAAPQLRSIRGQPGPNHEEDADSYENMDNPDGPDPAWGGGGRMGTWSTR
Procedure: Deconvolution microscopy was performed using the Deltavision deconvolution system from Applied Precision which consists of a Nikon TE200 inverted microscope outfitted for epifluorescence and fitted with an Applied Precision nanomover stage for precise control of the stage. Image collection was through a Photometrics CH350/L liquid cooled CCD camera. The system was controlled by SoftWoRx imaging software run on a Silicon Graphics O2 workstation.
as §1

binding result [1]: binds | binding result [2]: binds
B1: biotin-labeled soluble recombinant human CD19-L protein (ligand)
chain: MYMSMTEPSQDYVPASQSYPGPSLESEDFNIPPITPPSLQDHSLVHLNEVESGYHSLCHPMNHNGLLPFHPQNMDLPEITVSNMLGQDGTLLSNSISVMPDIRNPEGTQYSSHPQMAAMRPRGQPAQIRQQPGMMPHGQLTTINQSQLSAQLGLNMGGSNVPHNSPSPPGSKSATPSPSSSVHEDEGDDTSKINGGEKRPASDMGKKPKTPKKKKKKDPNEPQKPVSAYALFFRDTQAAIKGQNPNATFGEVSKIVASMWDGLGEEQKQVYKKKTEAAKKEYLKQLAAYRASLVSKSYSEPVDVKTSQPPQLINSKPSVFHGPSQAHSALYLSSHYHQQPGMNPHLTAMHPSLPRNIAPKPNNQMQVTVSIANMAVSPPPPLQISPPLHQHLNMQQHQPLTMQQPLGNQLPMQVQSALHSPTMQQGFTLQPDYQTIINPTSTAAQVVTQAMEYVRSGCRNPPPQPVDWNNDYCSSGGMQRDKALYLT
modifications: biotin-labeled (sites not given) ; Biotin-labelled; sites and chemistry not stated.
notes: Same recombinant protein as m1, labelled with biotin and detected with Avidin-FITC; also called biotin-labeled CD19-L; biotin-labeled soluble CD19-L protein; not shown: N-terminal pFastBacHT leader (6xHis tag, spacer region, rTEV cleavage site)
